Laboratory results from PMC3061879, “Crystal Structure of a Coiled-Coil Domain from Human ROCK I” (PLoS ONE, 2011).

Experiments:
[1] = biological target: the molecule itself; test: crystal structure; SeMet ROCK (535–700), space group P4(3)2(1)2; 13% MPD, 100 mM NaCl, 100 mM sodium acetate pH 4.9, 10 mM DTT, 5% glycerol, 10 mM spermidine; SAD phasing; four molecules (2 dimers) per asymmetric unit
[2] = biological target: the molecule itself; test: SEC-MALS; Superdex 200 in 20 mM Hepes pH 7.5, 150 mM NaCl, 2 mM TCEP; Wyatt miniDAWN TREOS three-angle light scattering detector and Optilab-rEX refractive index detector

| Protein | binding result [1] | stoichiometry N [2] |
| --- | --- | --- |
| ROCK coiled-coil domain (ROCK-CC, residues 535–700) of human ROCK I (domain or fragment, UniProt Q13464 535-700, looked up, selenomethionine (SeMet) substituted protein in the crystals used for the structure, Rho-associated kinase ROCK I (p160 ROCK), human, residues 535-700 of the central coiled-coil domain; The model holds residues 542–693 (A), 541–692 (B), 535–692 (C), 535–693 (D); also called ROCK (535–700); p160 ROCK (535–700); source: E. coli Rosetta2 (DE3), purified (Ni-NTA, TEV cleavage, cation exchange HiTrap SP); not shown: 6xHistidine-TEV, N-terminal, cleaved) LANEKLSQLQKQLEEANDLLRTESDTAVRLRKSHTEMSKSISQLESLNRELQERNRILENSKSQTDKDYYQLQAILEAERRDRGHDSEMIGDLQARITSLQEEVKHLKHNLEKVEGERKEAQDMLNHSEKEKNNLEIDLNYKLKSLQQRLEQEVNEHKVTKARLTD | binds |  |
| ROCK (535–704), coiled-coil fragment of human ROCK I (domain or fragment, UniProt Q13464 535-704, looked up, Rho-associated kinase ROCK I (p160 ROCK), human, residues 535-704 of the central coiled-coil domain; The purification is described only for ROCK (535–700); also called ROCK-CC (as called in the text and legend title of the SEC-MALS experiment); source: E. coli Rosetta2 (DE3), purified) LANEKLSQLQKQLEEANDLLRTESDTAVRLRKSHTEMSKSISQLESLNRELQERNRILENSKSQTDKDYYQLQAILEAERRDRGHDSEMIGDLQARITSLQEEVKHLKHNLEKVEGERKEAQDMLNHSEKEKNNLEIDLNYKLKSLQQRLEQEVNEHKVTKARLTDKHQS |  | 2 |
